Assay results taken from patent US20240272170A1.
Values belong to the binder of their own block, whether it stands above or below them.

Key:
[1] = target: RLp… after cleavage to N-terminal leucine (Lp…); test: single-molecule dynamic sequencing on chip
[2] = target: … after cleavage to N-terminal leucine (…); test: single-molecule dynamic sequencing on chip
[3] = target: EFIAWLV after cleavage to N-terminal leucine (LV); test: on-chip dynamic sequencing of EFIAWLV, example trace
[4] = target: EFIAWLV after cleavage to N-terminal leucine (LV); test: on-chip dynamic sequencing of EFIAWLV, kinetic signature plot
[5] = target: peptide with N-terminal IAA; test: single-molecule on-chip recognition of immobilized peptide, dye-labeled recognizer
[6] = target: peptide with N-terminal LAA; test: as above
[7] = target: peptide with N-terminal VAA; test: as above
[8] = target: EFIAWLVK after cleavage to N-terminal leucine (LVK); test: on-chip dynamic sequencing of the GLP-1 digest peptide EFIAWLVK, kinetic signature plot
[9] = target: … after cleavage to N-terminal leucine (…); test: on-chip dynamic sequencing of [..] with PS691, PS610, PS961; one example trace, segment at about 113-128 min, BR=0.31
[10] = substrate: I of … / RLp… (IAYPDDD); test: on-chip dynamic sequencing of [..] with PS691, PS610, PS961; one example trace, segment at about 247-277 min, BR=0.27
[11] = target: RLp… after cleavage to N-terminal leucine (Lp…); test: on-chip dynamic sequencing of RLp[..] with PS691, PS610, PS961; one example trace, segment at about 20-52 min, BR=0.28
[12] = substrate: I of … / RLp… (IAYPDDD); test: on-chip dynamic sequencing of RLp[..] with PS691, PS610, PS961; one example trace, segment at about 143-155 min, BR=0.25
[13] = target: HL Peptide (stopped-flow); test: stopped-flow rapid kinetics
[14] = target: RA Peptide (stopped-flow); test: stopped-flow rapid kinetics
[15] = target: RL Peptide (stopped-flow); test: stopped-flow rapid kinetics
QP304-RAIFAG peptide = target: T1, QP304-RAIFAG peptide; test: single-molecule on-chip recognition run
T1 sequence (peptide): RAIFAG

[16] = target: peptide RLp…; test: single-molecule dynamic sequencing on chip
[17] = target: peptide …; test: single-molecule dynamic sequencing on chip
[18] = target: T2, … after cleavage to N-terminal arginine (RLIFAG); test: on-chip dynamic sequencing of …, lower trace
T2 sequence (peptide, C-terminal azidolysine linked to DNA-streptavidin (p-0304)): RLIFAG

[19] = target: T2, … after cleavage to N-terminal arginine (RLIFAG); test: on-chip dynamic sequencing of …, upper trace
[20] = target: T3, synthetic peptide …; test: on-chip dynamic sequencing of …, example trace
T3 sequence (peptide): RLAFAYPDDD

[21] = target: T4, synthetic peptide …; test: on-chip dynamic sequencing of …, example trace; remark: listed apart in the source
T4 sequence (peptide): RLAFSALGAADDD

[22] = target: T5, synthetic peptide …; test: on-chip dynamic sequencing of …, example trace; remark: listed apart in the source
T5 sequence (peptide): RLIFAYPDDD

[23] = target: T6, synthetic peptide …; test: on-chip dynamic sequencing of …, example trace; remark: listed apart in the source
T6 sequence (peptide): RLMFAYPDDD

[24] = target: T7, synthetic peptide …; test: on-chip dynamic sequencing of …, example trace; remark: listed apart in the source
T7 sequence (peptide): RLVFAYPDDD

[25] = target: T2, … after cleavage to N-terminal arginine (RLIFAG); test: on-chip dynamic sequencing of …, example trace
[26] = target: T8, … after cleavage to N-terminal arginine (…); test: on-chip dynamic sequencing of …, example trace
T8 sequence (peptide): RLAASFAAQQYPDDD

[27] = target: T9, RA peptide (X…-FITC, X = R); test: fluorescence polarization titration, PS691 0-3000 nM
T9 sequence (peptide, FITC on the C-terminal Lys): RAKLDEESILKQK

[28] = target: T3, synthetic peptide …; test: on-chip dynamic sequencing of …, kinetic signature plot
[29] = target: T4, synthetic peptide …; test: as above; remark: listed apart in the source
[30] = target: T5, synthetic peptide …; test: as above; remark: listed apart in the source
[31] = target: T7, synthetic peptide …; test: as above; remark: listed apart in the source
[32] = target: T2, … after cleavage to N-terminal arginine (RLIFAG); test: as above
[33] = target: T8, … after cleavage to N-terminal arginine (…); test: as above
peptide RLMoFAYPDDD = target: T10, peptide RLMoFAYPDDD; test: on-chip dynamic sequencing of RLMoFAYPDDD, example trace
T10 sequence (peptide, M3 = methionine sulfoxide (Mo)): RLMFAYPDDD

[34] = target: peptide with N-terminal RLA; test: single-molecule on-chip recognition of immobilized peptide, dye-labeled recognizer
[35] = target: T4, synthetic peptide …; test: on-chip dynamic sequencing of a mixture of … and … on one chip, signature of …
[36] = target: T2, … after cleavage to N-terminal arginine (RLIFAG); test: as above
[37] = target: T9, RA peptide (X…-FITC, X = R); test: fluorescence polarization titration, recognizer 0-3000 nM, labeled peptide fixed
[38] = target: T11, … after cleavage to N-terminal arginine (RLIFAGK); test: on-chip dynamic sequencing of the ubiquitin digest peptide …, kinetic signature plot
T11 sequence (peptide): RLIFAGK

[39] = target: peptide …; test: on-chip dynamic sequencing of [..] with PS691, PS610, PS961; one example trace, segment at about 107-113 min, BR=0.46
[40] = target: peptide RLp…; test: on-chip dynamic sequencing of RLp[..] with PS691, PS610, PS961; one example trace, segment at about 3-18 min, BR=0.43

RS mean pulse duration (PD) [1]: 3.4 s
RS mean pulse duration (PD) [2]: 2.45 s
PD printed above the recognition segment (one trace) [3]: 5.92 s
median PD (kinetic signature) [4]: 5.3 s
median pulse duration (PD) [5]: 0.28 s
median pulse duration (PD) [6]: 1.21 s
median pulse duration (PD) [7]: 0.21 s
median PD (kinetic signature) [8]: 2.99 s
PW (pulse width of the segment in the example trace) [9]: 2.93
PW (pulse width of the segment in the example trace) [10]: 0.2
PW (pulse width of the segment in the example trace) [11]: 3.57
PW (pulse width of the segment in the example trace) [12]: 0.24
B1: PS961 (designed binder)
chain: MPTAASATESAIEDTPAPARPEVDGRTKPKRQPRYHVVLWDDDDHTYQYVVVMLRSLFGHPPSRGYRMAKEMDTQGRVIVLTTTREHAELKRDQIHAFGRDRLLARSKGSMKASIEAEE

koff [13]: 51.4 s⁻¹
koff [14]: 69.4 s⁻¹
kon [14]: 2.6e+07 M⁻¹ s⁻¹
koff [15]: 19.7 s⁻¹
pulse duration (QP304-RAIFAG peptide): 0.16 s
RS mean pulse duration (PD) [16]: 0.45 s
RS mean pulse duration (PD) [17]: 0.9 s
PD printed above the recognition segment (one trace) [18]: 0.34 s
PD printed above the recognition segment (one trace) [19]: 0.21 s
PD printed above the recognition segment (one trace) [20]: 0.25 s
PD printed above the recognition segment (one trace) [21]: 0.17 s
PD printed above the recognition segment (one trace) [22]: 0.29 s
PD printed above the recognition segment (one trace) [23]: 0.27 s
PD printed above the recognition segment (one trace) [24]: 0.27 s
PD printed above the recognition segment (one trace) [25]: 0.29 s
PD printed above the recognition segment (one trace) [26]: 0.17 s
Kd [27]: 369 nM
median PD (kinetic signature) [28]: 0.22 s
median PD (kinetic signature) [29]: 0.19 s
median PD (kinetic signature) [30]: 0.29 s
median PD (kinetic signature) [31]: 0.27 s
median PD (kinetic signature) [32]: 0.24 s
median PD (kinetic signature) [33]: 0.17 s
PD printed above the recognition segment (one trace) (peptide RLMoFAYPDDD): 0.25 s
median pulse duration (PD) [34]: 0.23 s
median PD (kinetic signature) [35]: 0.21 s
median PD (kinetic signature) [36]: 0.26 s
Kd [37]: 369 nM
median PD (kinetic signature) [38]: 0.31 s
PW (pulse width of the segment in the example trace) [39]: 0.9
PW (pulse width of the segment in the example trace) [40]: 0.54
B2: PS691 (designed binder, from a related filing)
chain: MHSKFSHAGRICGAKFKVGEPIYRCKECSFDDTCVLCVNCFNPKDHTGHHVYTTICTEFNNGICDCGDKEAWNHTLFCKAEEGGSAGSAAGSGEFMHSKFSHAGRICGAKFKVGEPIYRCKECSFDDTCVLCVNCFNPKDHTGHHVYTTICTEFNNGICDCGDKEAWNHTLFCKAEEGGGSHHHHHHHHHHGGGSGGGSGGGSGLNDFFEAQKIEWHEGGGSGGGSGGGSGLNDFFEAQKIEWHE
